Measurements published in patent US20240400708A1.

Legend:
[1] = target: feline FcRn complex (FcRn-α subunit and β-microglobulin) (feline); experiment: SPR (Biacore), FcRn on SA chip, pH 7.4
[2] = target: feline FcRn complex (FcRn-α subunit and β-microglobulin) (feline); experiment: SPR (Biacore), FcRn on SA chip, pH 6

Kd [1] [nM] | Kd [2] [nM] | Binder
3.35 | 0.011 | feline IgG1a mutant ID No. 351: S252Y, S428M, S434F, Q311W (antibody, part only; not given: Variable domains, not shown: another chain or arm of the molecule) constant: ASTTAPSVFPLAPSCGTTSGATVALACLVLGYFPEPVTVSWNSGALTSGVHTFPAVLQASGLYSLSSMVTVPSSRWLSDTFTCNVAHPPSNTKVDKTVRKTDHPPGPKPCDCPKCPPPEMLGGPSIFIFPPKPKDTLYISRTPEVTCLVVDLGPDDSDVQITWFVDNTQVYTAKTSPREEQFNSTYRVVSVLPILHWDWLKGKEFKCKVNSKSLPSPIERTISKAKGQPHEPQVYVLPPAQEELSRNKVSVTCLIKSFHPPDIAVEWEITGQPEPENNYRTTPPQLDSDGTYFVYSKLSVDRSHWQRGNTYTCSVMHEALHFHHTQKSLTQSPGK
4.78 | 0.0192 | feline IgG1a mutant ID No. 349: S252Y, S428M, S434F, Q311K (antibody, part only; not given: variable domains and light chain, not shown: another chain or arm of the molecule) constant: ASTTAPSVFPLAPSCGTTSGATVALACLVLGYFPEPVTVSWNSGALTSGVHTFPAVLQASGLYSLSSMVTVPSSRWLSDTFTCNVAHPPSNTKVDKTVRKTDHPPGPKPCDCPKCPPPEMLGGPSIFIFPPKPKDTLYISRTPEVTCLVVDLGPDDSDVQITWFVDNTQVYTAKTSPREEQFNSTYRVVSVLPILHKDWLKGKEFKCKVNSKSLPSPIERTISKAKGQPHEPQVYVLPPAQEELSRNKVSVTCLIKSFHPPDIAVEWEITGQPEPENNYRTTPPQLDSDGTYFVYSKLSVDRSHWQRGNTYTCSVMHEALHFHHTQKSLTQSPGK
6.48 | 0.0271 | feline IgG1a mutant ID No. 352: S252Y, S428M, S434F, Q311Y (antibody, part only; not given: Variable domains, not shown: another chain or arm of the molecule) constant: ASTTAPSVFPLAPSCGTTSGATVALACLVLGYFPEPVTVSWNSGALTSGVHTFPAVLQASGLYSLSSMVTVPSSRWLSDTFTCNVAHPPSNTKVDKTVRKTDHPPGPKPCDCPKCPPPEMLGGPSIFIFPPKPKDTLYISRTPEVTCLVVDLGPDDSDVQITWFVDNTQVYTAKTSPREEQFNSTYRVVSVLPILHYDWLKGKEFKCKVNSKSLPSPIERTISKAKGQPHEPQVYVLPPAQEELSRNKVSVTCLIKSFHPPDIAVEWEITGQPEPENNYRTTPPQLDSDGTYFVYSKLSVDRSHWQRGNTYTCSVMHEALHFHHTQKSLTQSPGK
4.46 | 0.0192 | feline IgG1a mutant ID No. 354: S252Y, S428M, S434F, T250Q (antibody, part only; not given: variable domains and light chain, not shown: another chain or arm of the molecule) constant: ASTTAPSVFPLAPSCGTTSGATVALACLVLGYFPEPVTVSWNSGALTSGVHTFPAVLQASGLYSLSSMVTVPSSRWLSDTFTCNVAHPPSNTKVDKTVRKTDHPPGPKPCDCPKCPPPEMLGGPSIFIFPPKPKDQLYISRTPEVTCLVVDLGPDDSDVQITWFVDNTQVYTAKTSPREEQFNSTYRVVSVLPILHQDWLKGKEFKCKVNSKSLPSPIERTISKAKGQPHEPQVYVLPPAQEELSRNKVSVTCLIKSFHPPDIAVEWEITGQPEPENNYRTTPPQLDSDGTYFVYSKLSVDRSHWQRGNTYTCSVMHEALHFHHTQKSLTQSPGK

More lines, now with the values behind:

Binder | Kd [1] [nM] | Kd [2] [nM]
feline IgG1a mutant ID No. 342: S252Y, S428M, S434F, D312P (antibody, part only; not given: Variable domains, not shown: another chain or arm of the molecule; small tags and cut ends) constant: ASTTAPSVFPLAPSCGTTSGATVALACLVLGYFPEPVTVSWNSGALTSGVHTFPAVLQASGLYSLSSMVTVPSSRWLSDTFTCNVAHPPSNTKVDKTVRKTDHPPGPKPCDCPKCPPPEMLGGPSIFIFPPKPKDTLYISRTPEVTCLVVDLGPDDSDVQITWFVDNTQVYTAKTSPREEQFNSTYRVVSVLPILHQPWLKGKEFKCKVNSKSLPSPIERTISKAKGQPHEPQVYVLPPAQEELSRNKVSVTCLIKSFHPPDIAVEWEITGQPEPENNYRTTPPQLDSDGTYFVYSKLSVDRSHWQRGNTYTCSVMHEALHFHHTQKSLTQSPGK | 3.29 | 0.0063
feline IgG1a mutant ID No. 345: S252Y, S428M, S434F, E430I (antibody, part only; not given: Variable domains, not shown: another chain or arm of the molecule) constant: ASTTAPSVFPLAPSCGTTSGATVALACLVLGYFPEPVTVSWNSGALTSGVHTFPAVLQASGLYSLSSMVTVPSSRWLSDTFTCNVAHPPSNTKVDKTVRKTDHPPGPKPCDCPKCPPPEMLGGPSIFIFPPKPKDTLYISRTPEVTCLVVDLGPDDSDVQITWFVDNTQVYTAKTSPREEQFNSTYRVVSVLPILHQDWLKGKEFKCKVNSKSLPSPIERTISKAKGQPHEPQVYVLPPAQEELSRNKVSVTCLIKSFHPPDIAVEWEITGQPEPENNYRTTPPQLDSDGTYFVYSKLSVDRSHWQRGNTYTCSVMHIALHFHHTQKSLTQSPGK | 11.5 | 0.0227
feline IgG1a mutant ID No. 347: S252Y, S428M, S434F, L314K (antibody, part only; not given: variable domains and light chain, not shown: another chain or arm of the molecule) constant: ASTTAPSVFPLAPSCGTTSGATVALACLVLGYFPEPVTVSWNSGALTSGVHTFPAVLQASGLYSLSSMVTVPSSRWLSDTFTCNVAHPPSNTKVDKTVRKTDHPPGPKPCDCPKCPPPEMLGGPSIFIFPPKPKDTLYISRTPEVTCLVVDLGPDDSDVQITWFVDNTQVYTAKTSPREEQFNSTYRVVSVLPILHQDWKKGKEFKCKVNSKSLPSPIERTISKAKGQPHEPQVYVLPPAQEELSRNKVSVTCLIKSFHPPDIAVEWEITGQPEPENNYRTTPPQLDSDGTYFVYSKLSVDRSHWQRGNTYTCSVMHEALHFHHTQKSLTQSPGK | 10.5 | 0.0567
feline IgG1a mutant ID No. 346: S252Y, S428M, S434F, G402R (antibody, part only; not given: Variable domains, not shown: another chain or arm of the molecule) constant: ASTTAPSVFPLAPSCGTTSGATVALACLVLGYFPEPVTVSWNSGALTSGVHTFPAVLQASGLYSLSSMVTVPSSRWLSDTFTCNVAHPPSNTKVDKTVRKTDHPPGPKPCDCPKCPPPEMLGGPSIFIFPPKPKDTLYISRTPEVTCLVVDLGPDDSDVQITWFVDNTQVYTAKTSPREEQFNSTYRVVSVLPILHQDWLKGKEFKCKVNSKSLPSPIERTISKAKGQPHEPQVYVLPPAQEELSRNKVSVTCLIKSFHPPDIAVEWEITGQPEPENNYRTTPPQLDSDRTYFVYSKLSVDRSHWQRGNTYTCSVMHEALHFHHTQKSLTQSPGK | 9.95 | 0.0404
feline IgG1a mutant ID No. 344: S252Y, S428M, S434F, D401R (antibody, part only; not given: Variable domains, not shown: another chain or arm of the molecule) constant: ASTTAPSVFPLAPSCGTTSGATVALACLVLGYFPEPVTVSWNSGALTSGVHTFPAVLQASGLYSLSSMVTVPSSRWLSDTFTCNVAHPPSNTKVDKTVRKTDHPPGPKPCDCPKCPPPEMLGGPSIFIFPPKPKDTLYISRTPEVTCLVVDLGPDDSDVQITWFVDNTQVYTAKTSPREEQFNSTYRVVSVLPILHQDWLKGKEFKCKVNSKSLPSPIERTISKAKGQPHEPQVYVLPPAQEELSRNKVSVTCLIKSFHPPDIAVEWEITGQPEPENNYRTTPPQLDSRGTYFVYSKLSVDRSHWQRGNTYTCSVMHEALHFHHTQKSLTQSPGK | 11 | 0.0128
feline IgG1a mutant ID No. 348: S252Y, S428M, S434F, Q311H (antibody, part only; not given: Variable domains, not shown: another chain or arm of the molecule) constant: ASTTAPSVFPLAPSCGTTSGATVALACLVLGYFPEPVTVSWNSGALTSGVHTFPAVLQASGLYSLSSMVTVPSSRWLSDTFTCNVAHPPSNTKVDKTVRKTDHPPGPKPCDCPKCPPPEMLGGPSIFIFPPKPKDTLYISRTPEVTCLVVDLGPDDSDVQITWFVDNTQVYTAKTSPREEQFNSTYRVVSVLPILHHDWLKGKEFKCKVNSKSLPSPIERTISKAKGQPHEPQVYVLPPAQEELSRNKVSVTCLIKSFHPPDIAVEWEITGQPEPENNYRTTPPQLDSDGTYFVYSKLSVDRSHWQRGNTYTCSVMHEALHFHHTQKSLTQSPGK | 10.8 | 0.00949
feline IgG1a mutant ID No. 343: S252Y, S428M, S434F, D399M (antibody, part only; not given: Variable domains, not shown: another chain or arm of the molecule; small tags and cut ends) constant: ASTTAPSVFPLAPSCGTTSGATVALACLVLGYFPEPVTVSWNSGALTSGVHTFPAVLQASGLYSLSSMVTVPSSRWLSDTFTCNVAHPPSNTKVDKTVRKTDHPPGPKPCDCPKCPPPEMLGGPSIFIFPPKPKDTLYISRTPEVTCLVVDLGPDDSDVQITWFVDNTQVYTAKTSPREEQFNSTYRVVSVLPILHQDWLKGKEFKCKVNSKSLPSPIERTISKAKGQPHEPQVYVLPPAQEELSRNKVSVTCLIKSFHPPDIAVEWEITGQPEPENNYRTTPPQLMSDGTYFVYSKLSVDRSHWQRGNTYTCSVMHEALHFHHTQKSLTQSPGK | 10.9 | 0.041
